Assay results as given in article PMC9469209, “Structural basis for activation of Arf1 at the Golgi complex” (Cell reports, 2022).

B1: Gea2 (full-length Saccharomyces cerevisiae Gea2) (enzyme, UniProt P39993 1-1459, looked up)
chain: MSDREFVTVDPVTIIIKECINLSTAMRKYSKFTSQSGVAALLGGGSEIFSNQDDYLAHTFNNLNTNKHNDPFLSGFIQLRLMLNKLKNLDNIDSLTILQPFLLIVSTSSISGYITSLALDSLQKFFTLNIINESSQNYIGAHRATVNALTHCRFEGSQQLSDDSVLLKVVFLLRSIVDSPYGDLLSNSIIYDVLQTILSLACNNRRSEVLRNAAQSTMIAVTVKIFSKLKTIEPVNVNQIYINDESYTNDVLKADTIGTNVESKEEGSQEDPIGMKVNNEEAISEDDGIEEEHIHSEKSTNGAEQLDIVQKTTRSNSRIQAYADDNYGLPVVRQYLNLLLSLIAPENELKHSYSTRIFGLELIQTALEISGDRLQLYPRLFTLISDPIFKSILFIIQNTTKLSLLQATLQLFTTLVVILGNNLQLQIELTLTRIFSILLDDGTANNSSSENKNKPSIIKELLIEQISILWTRSPSFFTSTFINFDCNLDRADVSINFLKALTKLALPESALTTTESVPPICLEGLVSLVDDMFDHMKDIDREEFGRQKNEMEILKKRDRKTEFIECTNAFNEKPKKGIPMLIEKGFIASDSDKDIAEFLFNNNNRMNKKTIGLLLCHPDKVSLLNEYIRLFDFSGLRVDEAIRILLTKFRLPGESQQIERIIEAFSSAYCENQDYDPSKISDNAEDDISTVQPDADSVFILSYSIIMLNTDLHNPQVKEHMSFEDYSGNLKGCCNHKDFPFWYLDRIYCSIRDKEIVMPEEHHGNEKWFEDAWNNLISSTTVITEIKKDTQSVMDKLTPLELLNFDRAIFKQVGPSIVSTLFNIYVVASDDHISTRMITSLDKCSYISAFFDFKDLFNDILNSIAKGTTLINSSHDDELSTLAFEYGPMPLVQIKFEDTNTEIPVSTDAVRFGRSFKGQLNTVVFFRIIRRNKDPKIFSKELWLNIVNIILTLYEDLILSPDIFPDLQKRLKLSNLPKPSPEISINKSKESKGLLSTFASYLKGDEEPTEEEIKSSKKAMECIKSSNIAASVFGNESNITADLIKTLLDSAKTEKNADNSRYFEAELLFIIELTIALFLFCKEEKELGKFILQKVFQLSHTKGLTKRTVRRMLTYKILLISLCADQTEYLSKLINDELLKKGDIFTQKFFATNQGKEFLKRLFSLTESEFYRGFLLGNENFWKFLRKVTAMKEQSESIFEYLNESIKTDSNILTNENFMWVLGLLDEISSMGAVGNHWEIEYKKLTESGHKIDKENPYKKSIELSLKSIQLTSHLLEDNNDLRKNEIFAIIQALAHQCINPCKQISEFAVVTLEQTLINKIEIPTNEMESVEELIEGGLLPLLNSSETQEDQKILISSILTIISNVYLHYLKLGKTSNETFLKILSIFNKFVEDSDIEKKLQQLILDKKSIEKGNGSSSHGSAHEQTPESNDVEIEATAPIDDNTDDDNKPKLSDVEKD
notes: Gea2, guanine nucleotide exchange factor for Arf1, Saccharomyces cerevisiae, full length; also called Arf-GEF Gea2; source: Pichia pastoris (KM71H), overexpressed, purified (Ni-NTA, MonoQ, TEV cleavage, Superdex 200 Increase SEC); not shown: His6, N-terminal, cleaved

Columns and labels:
[1] = target: B1; assay: cryo-EM structure; Gea2-Arf1 complex: 1 mg Gea2, 5 mg ΔN17-Arf1 and 250 units alkaline phosphatase at 4°C overnight, then SEC (20 mM Tris pH 8.0, 300 mM NaCl, 1 mM DTT); nucleotide-free activation intermediate; ~5 mg/mL with 2 mM fluorinated fos-choline-8; details: both partners purified
[2] = target: the molecule itself; assay: cryo-EM structure; Gea2 alone, ~5 mg/mL in SEC buffer (20 mM Tris pH 8.0, 150 mM NaCl, 1 mM DTT) with 2 mM fluorinated fos-choline-8; three dimeric conformations (closed/closed, closed/open, open/open)

Row | Binder | binding result [1] | stoichiometry N [2]
1 | ΔN17-Arf1 (S. cerevisiae Arf1 lacking its N-terminal amphipathic helix) (domain or fragment, UniProt P11076 18-181, looked up, Arf1 GTPase, Saccharomyces cerevisiae, truncated form lacking the N-terminal 17 residues (ΔN17); In the complex Arf1 is nucleotide-free (trapped with alkaline phosphatase); also called nucleotide-free Arf1; Arf1-NF; source: E. coli Rosetta2, purified as previously described (Richardson and Fromme, 2015; Richardson et al., 2012)) MRILMVGLDGAGKTTVLYKLKLGEVITTIPTIGFNVETVQYKNISFTVWDVGGQDRIRSLWRHYYRNTEGVIFVVDSNDRSRIGEAREVMQRMLNEDELRNAAWLVFANKQDLPEAMSAAEITEKLGLHSIRNRPWFIQATCATSGEGLYEGLEWLSNSLKNST | binds | –
2 | B1 | – | 2
